According to patent US20260167714A1 (COHERUS BIOSCIENCES, published 2026):

Legend:
[1] = target: T1, recombinant human ILT4 (LILRB2) (human, UniProt Q8N423 22-460); assay: SPR, Biacore T200, medium resolution; koff held at its limit of 4.27e-5 s^-1
T1 construct: Bought protein (Acro Biosystems or R&D Systems); also called ILTR4
Procedure: (§1) Label-free SPR analysis on a Biacore T200 instrument was utilized to measure antibody affinity to ILT4. CM4 sensor chips from Cytiva Inc. were utilized for all medium resolution analyses. Either anti-mouse Fc specific or anti-human Fc specific capture surfaces were prepared using standard amine coupling chemistry. Mouse, Chimera or Humanized mAbs were captured to their respective surfaces and ILT4 was injected across the surfaces from 101 nM to 0.79 nM in a 2-fold serial dilution series at a flow rate of 100 μL/min. The association phase was followed for 90 sec. while the dissociation phase was followed for 1200 sec. due to the medium resolution analysis implemented here. The sensorgrams were double-referenced and fit globally to a 1:1 interaction model with a term included for mass transport, and the equilibrium dissociation constant was calculated as KD=koff/kₒₙ. […] All kinetic experiments were performed at 25° C. in a buffer consisting of Hepes-buffered saline, pH 7.4, with 0.05% polysorbate 20 (HBS-P+) and 100 μg/ml Bovine Serum Albumin (BSA).

[2] = target: T1, recombinant human ILT4 (LILRB2); assay: SPR, Biacore T200, mAb captured on anti-Fc, ILT4 injected, medium resolution, 25 C
Procedure: as §1

[3] = target: T2, human ILT4 expressed on cells (human, UniProt Q8N423 22-597); assay: cell-based or functional assay
[4] = target: T2, human ILT4 expressed on cells; assay: flow cytometry, blockade of PE-HLA-G tetramer (5 µg/ml) binding to CHO-S/ILT4 cells, experiment 2
Procedure: (§2) In the second blocking experiment, the primary antibody dilutions were made by diluting antibody to 15 μg/ml in FACS buffer. Three independent sets of eleven 2.5-fold serial dilutions were then made in FACS buffer from 15 μg/ml to 0.002 μg/ml. Each dilution set was handled independently, and 50 μl from each was added to cells in duplicate. Control wells received FACS buffer with no antibody. Wells were mixed and incubated for 30 minutes at 4 degrees C. Cells were washed twice in FACS buffer.
(§3) In both blocking experiments, phycoerythrin (PE)-conjugated HLA-G tetramer was diluted in FACS buffer to 5 μg/ml and 100 μl per well was added to cells. Cells were incubated at 4 degrees C. for 30 minutes, washed twice in FACS buffer, and resuspended in 250 μl FACS buffer with 0.1 μg/ml propidium iodide.
(§4) Cells were acquired on an Attune flow cytometer, with 5000 propidium iodide-negative cells collected per sample, and MFI was recorded. Relative blocking activity was calculated with the following formula: 100−(Sample MFI−Background MFI)/(Top MFI−Background MFI)*100. Prism software (Graphpad) was used to plot MFI and relative blocking activity for each sample. The blocking potency for each antibody, represented as IC₅₀, was calculated with Prism software.

[5] = target: T2, human ILT4 expressed on cells; assay: flow cytometry blocking assay: ILT4-expressing CHO cells preincubated with antibody, then PE-HLA-G; HLA-G binding MFI falls from about 105000 (no antibody) to near 0
Procedure: as §2, §3, §4

T2 sequence (Q8N423 22-597): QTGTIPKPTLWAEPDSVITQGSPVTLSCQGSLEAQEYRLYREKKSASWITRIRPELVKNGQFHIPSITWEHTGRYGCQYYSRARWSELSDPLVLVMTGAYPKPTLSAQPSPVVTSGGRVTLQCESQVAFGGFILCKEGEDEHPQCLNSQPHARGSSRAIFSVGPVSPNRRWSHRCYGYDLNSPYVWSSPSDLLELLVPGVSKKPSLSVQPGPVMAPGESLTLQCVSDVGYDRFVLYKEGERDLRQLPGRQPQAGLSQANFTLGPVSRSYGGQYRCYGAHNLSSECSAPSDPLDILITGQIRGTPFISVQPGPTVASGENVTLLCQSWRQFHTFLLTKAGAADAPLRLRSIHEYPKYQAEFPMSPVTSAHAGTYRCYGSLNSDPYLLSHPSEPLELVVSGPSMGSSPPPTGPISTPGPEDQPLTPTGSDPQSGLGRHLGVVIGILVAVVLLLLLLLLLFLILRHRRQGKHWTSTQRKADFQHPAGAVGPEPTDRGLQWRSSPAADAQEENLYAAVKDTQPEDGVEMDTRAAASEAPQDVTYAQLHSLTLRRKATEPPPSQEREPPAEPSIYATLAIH
T1 sequence (Q8N423 other isoform, or with tags, fused parts or gaps limits assumed): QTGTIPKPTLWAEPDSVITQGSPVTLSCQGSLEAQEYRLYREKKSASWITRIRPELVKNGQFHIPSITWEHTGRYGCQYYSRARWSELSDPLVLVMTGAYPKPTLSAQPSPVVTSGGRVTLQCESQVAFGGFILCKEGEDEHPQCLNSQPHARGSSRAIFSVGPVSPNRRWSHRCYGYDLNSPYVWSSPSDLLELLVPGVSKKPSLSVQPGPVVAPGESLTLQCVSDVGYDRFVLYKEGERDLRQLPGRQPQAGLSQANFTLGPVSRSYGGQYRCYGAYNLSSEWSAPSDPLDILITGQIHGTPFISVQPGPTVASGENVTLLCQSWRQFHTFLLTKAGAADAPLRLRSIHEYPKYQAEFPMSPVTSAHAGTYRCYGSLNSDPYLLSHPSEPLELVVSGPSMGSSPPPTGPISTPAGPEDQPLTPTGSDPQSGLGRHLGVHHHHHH

Kd [1] [nM]	koff [1] [s⁻¹]	kon [2] [M⁻¹ s⁻¹]	Kd [2] [nM]	koff [2] [s⁻¹]	IL-6 secretion by LPS-stimulated M2 macrophages (MSD), fold over control [3] [fold]	IC50 [4] [µg/mL]	IC50 [5] [µg/mL]	Binder
≤ 0.114	≤ 4.27e-05	373000	–	–	–	–	–	Chimeric 156 (antibody, V domains shown, Chimeric form of L156S3) VH: QVQLKQSGAELVRPGASVKLSCRASGYTFTDYYMNWVKQRPGQGLEWIARIYPGVYRTHYNEKFKDKATLTAEKSSSTAYMELSSLTSEDSAVYFCARSGYYGGTYEEDAMDYWGQGTSVTVSS VL: DIQMTQSPASLSVSVGETVTITCRASENIYSNLAWYQQKQGKSPQLLVYAATSLADGVPSRFRGSGSGTQYSLKISSLQSEDFGNYYCQNFWDTPYTFGGGTKLEIK
–	–	489000	0.223	0.000109	–	–	–	Chimeric 45 (antibody, V domains shown, Chimeric form of L45S4, captured on anti-human Fc) VH: EVQLQQSGPELVKPGASVKISCKASGYTFTDYYMNWVKQSHGKSLEWIGDINPNNGGTSYNQKFKGKATLTVDKSSSTAYMELRSLTSEDSAVYYCARGGAELTGTYWYFDVWGTGTTVTVSS VL: DIQMTQSPASLSISVGETVTITCRASENIYSNLAWYQQKQGKSPQVLVYGATNLADGVPSRFSGSGSGTQYSLKIKSLQSEDFGSYYCQHFWDSPFTFGSGTKLEIK
≤ 0.099	≤ 4.27e-05	431000	–	–	2	0.095	0.064	L180S4 (antibody, IgG1, V domains shown, also called Murine 180; mouse anti-human ILT4 antibody L180S4) VH: EVHLQQSGPELVKPGASVKISCKASGYSFIGYFMNWMKQSHGKSLEWIGRINPYNGDIFYNQKFKGKATLTVDKSSTTAHMDLLSLTSEDFAVYYCARGITVAAGSFDVWGTGTTVTVSS VL: DIVLTQSPASLAVSLGQRATISCRASESVDNYGNTFMHWYQQKPGQPPKLLIYRASNLESGIPARFSGSGSKTDFTLTINPVEADDVATYYCQQSSDHPLTFGAGTKLELS
≤ 0.049	≤ 4.27e-05	874000	–	–	–	–	–	Chimeric 180 (antibody, V domains shown, Chimeric form of L180S4) VH: EVHLQQSGPELVKPGASVKISCKASGYSFIGYFMNWMKQSHGKSLEWIGRINPYNGDIFYNQKFKGKATLTVDKSSTTAHMDLLSLTSEDFAVYYCARGITVAAGSFDVWGTGTTVTVSS VL: DIVLTQSPASLAVSLGQRATISCRASESVDNYGNTFMHWYQQKPGQPPKLLIYRASNLESGIPARFSGSGSKTDFTLTINPVEADDVATYYCQQSSDHPLTFGAGTKLELS
≤ 0.111	≤ 4.27e-05	387000	–	–	2	0.103	0.076	L77S2 (antibody, IgG1, V domains shown, also called Murine 77; mouse anti-human ILT4 antibody L77S2) VH: DVQLQQSGPELVKPGNSVKISCKAAGYSFTGYSVNWVKERHGKSLEWIGRINPYNGDIFNNQKFKGKATLTVDKSSSTAHMELRSLTSEDSAVYYCARGTTVGGAWFAYWGQGTLVTVSA VL: VIVLTQSPASLAVSLGQRAAISCRASESVDSYGYSFLHWYQQKPGQPPKLLIYLASNLESGIPARFSGSGSGTDFTLTINPVEADDVATYYCQQSNEDLMYTFGGGTKLEIK
≤ 0.059	≤ 4.27e-05	728000	–	–	–	–	–	Chimeric 77 (antibody, V domains shown, Chimeric form of L77S2) VH: DVQLQQSGPELVKPGNSVKISCKAAGYSFTGYSVNWVKERHGKSLEWIGRINPYNGDIFNNQKFKGKATLTVDKSSSTAHMELRSLTSEDSAVYYCARGTTVGGAWFAYWGQGTLVTVSA VL: VIVLTQSPASLAVSLGQRAAISCRASESVDSYGYSFLHWYQQKPGQPPKLLIYLASNLESGIPARFSGSGSGTDFTLTINPVEADDVATYYCQQSNEDLMYTFGGGTKLEIK
